According to article PMC2185549:

Tests used:
[1] = target: Sec61 complex of Th50-PK-RM (thermolysin 50 μg/ml, on ice) (canine (endogenous in canine pancreas microsomes)) (UniProt P38377); assay: radioligand binding
[2] = target: Sec61 complex of C30-PK-RM (chymotrypsin 30 μg/ml) (canine (endogenous in canine pancreas microsomes)) (UniProt P38377); assay: radioligand binding
[3] = target: Sec61 complex of C5-PK-RM (chymotrypsin 5 μg/ml) (canine (endogenous in canine pancreas microsomes)) (UniProt P38377); assay: radioligand binding
[4] = target: Sec61 complex of T3-PK-RM (trypsin 3 μg/ml) (canine (endogenous in canine pancreas microsomes)) (UniProt P38377); assay: radioligand binding
[5] = target: Sec61 complex of C1-PK-RM (chymotrypsin 1 μg/ml) (canine (endogenous in canine pancreas microsomes)) (UniProt P38377); assay: radioligand binding
[6] = target: Sec61 complex of C30-PK-RM (chymotrypsin 30 μg/ml) (canine (endogenous in canine pancreas microsomes)) (UniProt P38377); assay: SEC
[7] = target: Sec61 complex of C5-PK-RM (chymotrypsin 5 μg/ml) (canine (endogenous in canine pancreas microsomes)) (UniProt P38377); assay: SEC
[8] = target: Sec61 complex of T10-PK-RM (trypsin 10 μg/ml) (canine (endogenous in canine pancreas microsomes)) (UniProt P38377); assay: SEC

canine ribosomes (nontranslating 80S ribosomes) (complex)
fold fewer ribosome binding sites than Th2-PK-RM [1]: 3 fold
fold defect in ribosome binding against undigested PK-RM [2]: > 10 fold
fold lower affinity than the sites of undigested PK-RM [2]: < 2 fold
fold lower affinity than the sites of undigested PK-RM [3]: < 2 fold
fold reduction of ribosome binding against undigested PK-RM [3]: 3 fold
percent of the high affinity ribosome binding sites of intact PK-RM [4]: 5%
fold lower affinity than the sites of undigested PK-RM [5]: < 2 fold

ribosome-nascent chain complex bearing ffLuc77
fold reduction of RNC binding relative to intact microsomes [6]: 3.5 fold

ribosome-nascent chain complex bearing pPL86 (from UniProt P01239 1-86)
fold less RNCs bound than undigested PK-RM [6]: 2.7 fold
percent of the bound RNCs insensitive to high salt extraction [6]: 80%
fold decrease in RNC binding against undigested PK-RM [7]: 2 fold
fold less RNCs bound than undigested PK-RM [8]: 5 fold
